The text below walks through data of US20060121047A1, “Use of hmgb polypetides for increasing immune responses” (priority 2002, published 2006).

Series [1] deals with RAW 264.7 cells. Put plainly: IL-6 release from RAW 264.7 cells (ELISA). The series is classed as cell-based, murine. To be noted: B box 0-10 μg/ml, 8 hours (FIG. 2C). As for the experimental part:
Murine macrophage-like RAW 264.7 cells (American Type Culture Collection, Rockville, Md.) were cultured in RPMI 1640 medium (Life Technologies, Grand Island N.Y.) supplemented with 10% fetal bovine serum (Gemini, Catabasas, Calif.), penicillin and streptomycin (Life Technologies) and were used at 90% confluence in serum-free Opti-MEM I medium (Life Technologies, Grand Island, N.Y.). […] Polymyxin B was not used in experiments of synthetic peptide studies.
To further examine the effect of HMGB1 B box on cytokine production, varying amounts of HMGB1 B box were evaluated for the effects on TNF, IL-1B, and IL-6 production in murine macrophage-like RAW 264.7 cells. Conditioned media were harvested and measured for TNF, IL-1β and IL-6 levels. TNF levels were measured as described herein, and IL-1β and IL-6 levels were measured using the mouse IL-1β and IL-6 enzyme-linked immunosorbent assay (ELISA) kits (R&D System Inc., Minneapolis, 1) and N>5 for all experiments.

In series [2] the test system is D-galactosamine-sensitized Balb/c mice. Put plainly: Histology of organs of D-galactosamine-sensitized Balb/c mice. To be noted: 1 mg/mouse i.p. plus D-gal, 7 hours. Type of series: in vivo. As for the experimental part:
To further assess the lethality of the HMGB1 B box protein in vivo the HMGB1 B box was again administered to D-galactosamine-sensitized Balb/c mice. Mice (3 per group) received D-gal (20 mg/mouse) plus B box or vector (1 mg/mouse) intraperitoneally for 7 hours and were then sacrificed by decapitation. Blood was collected, and organs (liver, heart, kidney and lung) were harvested and fixed in 10% formaldehyde. Tissue sections were prepared with hematoxylin and eosin staining for histological evaluation (Criterion Inc., Vancouver, Canada). […] In FIG. 4J, hepatocyte dropouts are seen surrounded by accumulated polymorphonuclear leukocytes. The arrows in FIG. 4J point to the sites of polymorphonuclear accumulation (dotted) or apoptotic hepatocytes (solid).

Series [3] concerns RAW 264.7 cells. Put plainly: TNF mRNA expression in RAW 264.7 cells (RNase protection assay). To be noted: 10 μg/ml. Type of series: cell-based, murine. The method, then: The kinetics of B box-induced TNF release was also examined. TNF release and TNF mRNA expression was measured in RAW 264.7 cells induced by B box polypeptide or GST tag polypeptide only used as a control (vector) (10 μg/ml) for 0 to 48 hours. Supernatants were analyzed for TNF protein levels by an L929 cytotoxicity assay (N=3-5) as described herein. For mRNA measurement, cells were plated in 100 mm plate and treated in Opti-MEM I medium containing B box polypeptide or the vector alone for 0, 4, 8, or 24 hours, as indicated in FIG. 2D. The vector only sample was assayed at the 4 hour time point. Cells were scraped off the plate and total RNA was isolated by RNAzol B method in accordance with the manufacturer's instructions (Tel-Test “B”, Inc., Friendswood, Tex.). TNF (287 bp) was measured by RNase protection assay (Ambion, Austin, Tex.). Equal loading and the integrity of RNA was verified by ethidium bromide staining of the RNA sample on agarose-formaldehyde gel. […] TNF mRNA expression was maximal at 4 hours and decreased at 8 and 24 hours. […] A similar study was carried out measuring TNF protein released from RAW 264.7 cells 0, 4, 8, 24, 32 or 48 hours after administration of B box or vector only (GST tag), using the L929 cytotoxicity assay described herein. […] Data are representative of three separate experiments.

For a further series, the system named is C3H/HeJ mice. Put plainly: Lethality and histology in C3H/HeJ mice. Type of series: in vivo. The text has this:
Male 6-8 week old Balb/c and C3H/HeJ mice were purchased from Harlen Sprague-Dawley (Indianapolis, Ind.) and were allowed to acclimate for 7 days before use in experiments. All animals were housed in the North Shore University Hospital Animal Facility under standard temperature, and a light and dark cycle.

B1: B box: Recombinant GST-system human HMGB1 mutant containing only the B box, 74 amino acids, SEQ ID NO: 20 (protein, listed as Homo sapiens)
chain: FKDPNAPKRLPSAFFLFCSEYRPKIKGEHPGLSIGDVAKKLGEMWNNTAADDKQPYEKKAAKLKEKYEKDIAAY
modifications: GST system
As for B1, in the series with RAW 264.7 cells [1], the “IL-6 release, dose dependence” value is on record as “increased with increased amounts of B box”. In addition, the “IL-6 release, dose dependence” value with RAW 264.7 cells [1] (listed as HMGB1 B box) is recorded as “dose-dependently stimulated release”. In addition, in series [2], the histology of heart entry is “some ischemic changes and loss of cross striation in myocardial fibers”; the “histology of kidneys and lungs” value is recorded as “no abnormality”; the histology of liver entry is listed as “active hepatitis”. The “time of maximal TNF mRNA expression” value in the series on RAW 264.7 cells [3] turned out to be 4 h. Further, the “TNF mRNA expression” value in the series on RAW 264.7 cells [3] (0, 4, 8 or 24 hours (vector at 4 hours) (FIG. 2D)) is “increased significantly”. In addition, in the series with C3H/HeJ mice (8 hours after administration), the histology of heart entry is “evidence of ischemia with loss of cross striation”; the histology of liver entry is on record as “mild acute inflammatory responses”; the “histology of lung and kidney” value is given as “no abnormal morphologic changes”. Moreover, the lethality result with C3H/HeJ mice (C3H/HeJ mice (do not respond to endotoxin)) is “lethal”.
